Measurements: article PMC4339892, “Neuropilin 1 is an entry factor that promotes EBV infection of nasopharyngeal epithelial cells” (Nature Communications, 2015)

Tests used:
[1] = target: the molecule itself; experiment: cross-linking; DSS cross-linking of gB-overexpressing cells, western blotting of the natural form of gB^23–431
[2] = target: T1, GST-NRP1^ABC (soluble extracellular ABC domain of NRP1) (human, UniProt O14786-1 30-862); experiment: ELISA; plates coated with 200 ng purified FLAG-gB^23–431, various concentrations of GST-NRP1 or GST-NRP2 for 2 h at RT, rabbit anti-GST and HRP-conjugated secondary antibody; apparent affinity constant; conditions: both partners purified
T1 construct: neuropilin 1 residues 30-862 (extracellular ABC domain), amplified from pMSCV-NRP1, in pGEX-6p-1; also called pGEX-NRP1^ABC; pGEX-GST-NRP1^ABC; source: E. coli Rosetta, purified (Glutathione agarose)
T1 sequence: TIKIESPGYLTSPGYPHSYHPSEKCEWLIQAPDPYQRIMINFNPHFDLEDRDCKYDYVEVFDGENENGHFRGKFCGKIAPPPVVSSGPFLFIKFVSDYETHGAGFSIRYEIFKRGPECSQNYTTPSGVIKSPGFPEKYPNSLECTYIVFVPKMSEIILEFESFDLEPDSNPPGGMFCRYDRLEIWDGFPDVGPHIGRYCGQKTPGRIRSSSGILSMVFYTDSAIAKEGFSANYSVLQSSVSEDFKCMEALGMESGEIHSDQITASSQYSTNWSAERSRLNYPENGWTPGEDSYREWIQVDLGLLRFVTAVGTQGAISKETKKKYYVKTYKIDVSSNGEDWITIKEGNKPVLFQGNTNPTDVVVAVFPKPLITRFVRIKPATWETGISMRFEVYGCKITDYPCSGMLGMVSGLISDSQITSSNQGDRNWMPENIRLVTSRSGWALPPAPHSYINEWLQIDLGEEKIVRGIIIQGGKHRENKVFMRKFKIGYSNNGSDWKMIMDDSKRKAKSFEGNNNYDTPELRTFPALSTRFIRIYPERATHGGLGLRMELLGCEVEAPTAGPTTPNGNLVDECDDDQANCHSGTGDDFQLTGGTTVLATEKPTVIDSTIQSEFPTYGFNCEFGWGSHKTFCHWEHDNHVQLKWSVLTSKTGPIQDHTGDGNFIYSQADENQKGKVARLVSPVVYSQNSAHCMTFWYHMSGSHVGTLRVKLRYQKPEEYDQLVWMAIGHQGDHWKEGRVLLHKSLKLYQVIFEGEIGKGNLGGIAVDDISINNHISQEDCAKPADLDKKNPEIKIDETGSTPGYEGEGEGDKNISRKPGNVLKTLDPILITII

B1: FLAG-gB^23–431 (EBV glycoprotein B residues 23-431, CendR motif exposed) (domain or fragment)
chain: QTPEQPAPPATTVQPTATRQQTSFPFRVCELSSHGDLFRFSSDIQCPSFGTRENHTEGLLMVFKDNIIPYSFKVRSYTKIVTNILIYNGWYADSVTNRHEEKFSVDSYETDQMDTIYQCYNAVKMTKDGLTRVYVDRDGVNITVNLKPTGGLANGVRRYASQTELYDAPGWLIWTYRTRTTVNCLITDMMAKSNSPFDFFVTTTGQTVEMSPFYDGKNKETFHERADSFHVRTNYKIVDYDNRGTNPQGERRAFLDKGTYTLSWKLENRTAYCPLQHWQTFDSTIATETGKSIHFVTDEGTSSFVTNTTVGIELPDAFKCIEEQVNKTMHEKYEAVQDRYTKGQEAITYFITSGGLLLAWLPLTPRSLATVKNLTELTTPTSSPPSSPSPPAPSAARGSTPAAVLRRRR
notes: Epstein-Barr virus glycoprotein B (gB), residues 23-431, amplified from the gB expression plasmid p2670; ends with the CendR motif 428-431 (furin cleavage site); Secreted into the supernatant; the signal peptide of the vector is not described; also called EBV-gB^23–431; pCEP-his-FLAG-gB^23–431; source: HEK-293FT, transfected, in lysate (co-IP; M2 beads for the pull-down)
How did the “stoichiometry N” value [1] turn out when B1 was run?
The value was 3.

Does B1 bind [2]?
Result: binds
